Here are results for ten molecules from patent US20250388666A1 (BRIGHAM AND WOMEN S HOSPITAL, published 2025).

Substitutions are numbered along the chain they refer to. In names and notes the source's numbering stands.

Usually Kd stands for the equilibrium constant for the complex coming apart.

Sequences and labels used below:
B1: Parent VH/L4 #1 (antibody, IgG4, V domains shown)
VH: EVQLLESGGGLVQPGGSLRLSCAASGFSFSDYYLYWVRQAPGKGLEWVATISVGGGQTSYADSVKGRFTISRDNSKNTLYLQMNSLRAEDTAMYYCTRGLYYGPAWFAYWGQGTLVTVSS
VL: DIVMTQSPDSLAVSLGERATINCKSSQSLLNSANQKNYLAWYQQKPGQPPKLLIYFASTRESGVPDRFSGSGSGTDFTLTISSLQAEDVAVYYCQSHFPYYYTFGGGTKVEIK
notes: IgG4 S241P, kappa
B2: Parent VH/L17 (antibody, IgG4, V domains shown)
VH: B1 VH
VL: B1 VL with F98Y, Y101P
notes: IgG4 S241P, kappa
B3: Parent VH/L6 (antibody, IgG4, V domains shown)
VH: B1 VH
VL: B1 VL with F98Y, Y100F, Y101S, Y102F
notes: IgG4 S241P, kappa
B4: Parent VH/L5 (antibody, IgG4, V domains shown)
VH: B1 VH
VL: B1 VL with F98Y, Y100F, Y101A, Y102F
notes: IgG4 S241P, kappa
B5: Parent VH/L19 (antibody, IgG4, V domains shown)
VH: B1 VH
VL: B1 VL with F98I, P99Y, Y100P, Y101N, Y102F
notes: IgG4 S241P, kappa
B6: Parent VH/L20 (antibody, IgG4, V domains shown)
VH: B1 VH
VL: B1 VL with Y101P, Y102L
notes: IgG4 S241P, kappa
B7: VH3/Vκ1 (antibody, V domains shown)
VH: EVQLLESGGGLVQPGGSLRLSCAASGFIFSSHGMSWVRQAPGKGLEWVATISSGGTYTYYADSVKGRFTISRDNSKNTLYLQMNSLRAEDTAMYYCARHDFDYDAAWFAYWGQGTLVTVSS
VL: QIVLTQSPALLSLSPGERATMSCSANSSVSYMYWYRQKPGQAPKPWIYLTSNLASGVPARFSGSGSGTDYTLTISSLEAEDFATYYCQQWSSNPPTFGQGTKLEIK
B8: VH4/Vκ1 (antibody, V domains shown)
VH: B7 VH with A49S, M93V
VL: B7 VL
B9: VH3/Vκ2 (antibody, V domains shown)
VH: B7 VH
VL: B7 VL with Q1E, L10T, M21L, S24R, R36Q, K44R, L53R, S55T, A79P
B10: VH4/Vκ2 (antibody, V domains shown)
VH: B7 VH with A49S, M93V
VL: B7 VL with Q1E, L10T, M21L, S24R, R36Q, K44R, L53R, S55T, A79P

The first assay addresses T1, CEACAM1 (Sino Biological) (human, UniProt P13688 35-428, limits assumed).
T1 construct: may be the same as CEACAM1-HIS; also called hCEACAM1; biotinylated soluble CEACAM1
T1 sequence: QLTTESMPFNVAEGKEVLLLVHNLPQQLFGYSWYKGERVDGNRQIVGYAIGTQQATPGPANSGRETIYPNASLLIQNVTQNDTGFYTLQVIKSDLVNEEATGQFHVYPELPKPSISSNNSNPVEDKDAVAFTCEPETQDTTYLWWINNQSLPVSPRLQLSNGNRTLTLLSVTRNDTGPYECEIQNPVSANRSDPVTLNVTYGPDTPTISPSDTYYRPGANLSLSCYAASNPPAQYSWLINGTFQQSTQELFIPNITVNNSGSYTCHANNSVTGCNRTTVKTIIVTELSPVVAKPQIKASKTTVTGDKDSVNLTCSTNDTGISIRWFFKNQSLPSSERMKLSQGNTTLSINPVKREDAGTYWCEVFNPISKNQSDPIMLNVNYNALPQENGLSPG
As to the kind of experiment: SPR single-cycle. The method in brief: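 Humanized affinity-matured IgGs from crude supernatants captured on Protein A to ~100 RU, with CEACAM1 analyte injected at 25–100 nM (three-point, two-fold) in HBS-P+ without regeneration. 200 s association per injection, 300 s single dissociation; reference-channel and blank subtracted.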
As to B1, the Kd came out at 103 nM and the “fold better than Parent (KD)” value amounted to 1.54 fold.
B2: the affinity, expressed as Kd, was 76 nM and the “fold better than Parent (KD)” value turned out to be 2.08 fold.
As for B3, the Kd was determined as 57 nM and the “fold better than Parent (KD)” value was found to be 2.81 fold.
As to B4, the Kd turned out to be 66 nM and the “fold better than Parent (KD)” value is 2.42 fold.
Take B5: the Kd stood at 77 nM and the “fold better than Parent (KD)” value came out at 2.08 fold.
In the case of B6, the equilibrium dissociation constant (Kd) came to 87 nM and the “fold better than Parent (KD)” value worked out at 1.83 fold.

For another assay, the target named is T2, CEACAM1-HIS (Sino Biologics Inc.) (Homo sapiens (Human), UniProt P13688 35-428).
T2 construct: bought; not shown: His tag
T2 sequence: T1 sequence
As to the kind of experiment: SPR single-cycle, IgG on Protein A. Here is the method: As an alternative approach to assess the binding of the antibody combinations and the control antibodies to CEACAM1, a kinetic analysis was performed on a Biacore T200 running Biacore T200 Evaluation Software V2.0.1. All experiments were run at 25° C. with HBS-P+ running buffer (pH 7.4).
In order to assess the binding of all Composite Human Antibody™ variants, single cycle kinetic analysis was performed on the supernatants of all the transiently transfected HEK EBNA cells. Purified chimeric antibody and purified chimeric antibody spiked into HEK EBNA media were used as positive controls. Supernatants were diluted in HBS-P+ to a concentration of 1 μg/mL (as determined by an IgG quantitation ELISA). At the start of each cycle, antibodies were loaded onto Fc2, Fc3 and Fc4 of a Protein A chip and captured at a flow rate of 8 μL/min to give an RU of ˜100. The surface was then allowed to stabilize. Single cycle kinetic data was obtained at a flow rate of […] to minimize any potential mass transfer effects. Multiple repeats of the chimeric antibody were performed to check the stability of the surface and analyte over the kinetic cycles. The signal from the reference channel Fc1 (no antibody) was subtracted from that of Fc2, Fc3 and Fc4 to correct for differences in non-specific binding to a reference surface. A 5 point 2-fold dilution range from 3.125 to 50 nM CEACAM1 without regeneration between each concentration was used. The association phase for the 5 injections of increasing concentrations of CEACAM1 was monitored for 150 seconds and a single dissociation phase was measured for 150 seconds following the last injection of CEACAM1. Regeneration of the Protein A was conducted using 2 injections of 10 mM glycine-HCL pH 1.5 followed by a stabilization period of 500 seconds.
In the raw sensorgrams for the single cycle kinetics, the signal from each antibody blank run (no CEACAM1) was subtracted to correct for differences in surface stability.
For the molecule B7, the Kd came out at 1500 nM and the “relative KD to chimeric parental antibody” value (“relative KD” for short) came out at 34.7 ratio.
With B8, the Kd came out at 243 nM and the “relative KD” value is 5.6 ratio.
As for B9, the Kd is 265 nM and the “relative KD” value is 6.1 ratio.
Regarding B10, the Kd was found to be 3950 nM and the “relative KD” value came to 91.4 ratio.
